Results published in paper PMC7683400.

Tests used:
[1] = target: CmeC (outer membrane channel of the CmeABC efflux pump) (UniProt Q0PBE5); experiment: SPR (Biacore, CM5 chip); conditions: pH 7.4; 25°C; not stated (no salt is listed in the buffer recipes); pH 7.4: 10 mM HEPES (HBS-PE); pH 6.0: 10 mM MES
[2] = target: nonglycosylated CmeA (g0CmeA), soluble periplasmic His6-tagged CmeA (Campylobacter jejuni) (UniProt Q0PBE3); experiment: SPR; g0CmeA (1,040 RU) or g2CmeA (900 RU) immobilised on a CM5 chip by amine coupling; CmeC flowed over in 2-fold dilutions from 2 × 10^-7 M; HBS-PE (10 mM HEPES pH 7.4, 3 mM EDTA, 0.005% P20), 25°C, 30 µl/min; constants are of the slow interactions only, the fast interactions could not be fitted
[3] = target: fully glycosylated CmeA (g2CmeA), soluble periplasmic His6-tagged CmeA (Campylobacter jejuni) (UniProt Q0PBE3); experiment: as above

Substance	koff [1]	kon [1]	Kd [2] [nM]	koff [2] [s⁻¹]	kon [2] [M⁻¹ s⁻¹]	Kd [3] [nM]	koff [3] [s⁻¹]	kon [3] [M⁻¹ s⁻¹]
g2CmeA (fully N-glycosylated CmeA)	7.5 ± 0.6 × 10^–4 s^–1	1.5 ± 0.04 × 10^5 (M^–1 s^−1)						
g0CmeA (non-glycosylated CmeA, periplasmic fusion protein of the CmeABC efflux pump)	8.5 ± 1.0 × 10^–4 s^–1	5.0 ± 0.8 × 10^4 (M^–1 s^–1)						
CmeC, outer membrane channel of CmeABC, 10×His-tagged, expressed in E. coli (natural protein)			17	0.00085	50000	5	0.00075	150000
